Experiment [1] deals with endogenous melanotransferrin. The experiment is described as follows: RT-PCR after p97 treatment in U-87 cells: endogenous melanotransferrin. It counts as cell-based, human. The following applies: RT-PCR (FIG. 36). Here is the method: FIG. 36. Effect of p97 and RAP treatments in U-87 cells (RT-PCR) on endogenous melanotransferrin. Cells (2×105) were plated onto six-multiwell microplates and grown at 37° C. under 5% CO2 with optimal culture medium supplemented with serum for 4 days. Treatment with p97 and RAP was performed in serum free medium for 72 hours. RNA isolation and RT-PCR were performed as described in the Examples. The amplified PCR products were electrophoresed on a 2% agarose gel and visualized under ultraviolet light. (n=1).
RNA extraction. Cells in six-wells plate or in 75 cm^2 plastic tissue culture flasks were grown at 37° C. under 5% CO2 with optimal culture medium to 80-90% confluence. Total cellular RNA was preserved in Trizol (Gibco BRL, Burlington, ON). The solution are frozen at −80° C. until extraction. The solution was defroze and mixed with 5:1 chloroform for 3 minutes at room temperature. The suspension was centrifugated at 12000 g at 4° C. The clear supernatant was collected then mixed with 1:1 of isopropanol for 15 minutes at room temperature. The mix was centrifugated at 12000×g for 10 min at 4° C. The pellets was washed with 70% ethanol and dried before resuspended in RNase Free H2O.
RT-PCR. RT-PCR was performed for members of the LDL-R family: LRP, LRP1B, megalin, LDL, VLDL, LRP8, LR11, RAP, LR3, cubulin and P97. […]

Another experiment concerns LRP/LRP1B. As to the kind of experiment: Ligand binding and cross-linking, LRP/LRP1B immunodetection in U-87 cells. On the set-up: species or system human. The following applies: 4° C., cross-linked, non-reducing SDS-PAGE (FIG. 29). The method, then:
FIG. 29. […] U-87 cells were grown in monolayer in six-multiwell microplates at 37° C. under 5% CO2. The cell monolayer were incubated at 4° C. with p97 or RAP in Ringer/Hepes solution. After incubation, cell monolayer was washed 3 times with cold-Ringer/Hepes solution and proteins were cross-linked with 1 mM DSS. After, cells were lysed and equal quantities of protein (25 μg) were subjected to SDS-PAGE under non-reducing conditions and electroblotted onto PVDF membranes. […] (n=2).
Ligand-binding. Briefly, cells were incubated with [^125I]-p97 in Ringer/Hepes solution, in presence or in absence of 5 μM cold-P97 for 1 h at 4° C. After incubation, the cell monolayer was washed three times with cold Ringer/Hepes solution. After the ligand binding at 4° C., cell monolayer was washed three times with cold Ringer/Hepes solution and was incubated with DSS (Disuccinimidyl suberate) or Lomant's reagent DSP (Dithiobis(succinimidyl propionate)) from Pierce. After the cross-link, cells were lysed and proteins were separated by SDS-PAGE electrophoresis. Gels were fixed, dryed and exposed to Kodak films at −80° C. for about 3 weeks before developing. The cross-link was performed exactly as the manufacturer's protocol.

The subject of another experiment is BBCEC monolayers. The experiment is described as follows: Transcytosis of bovine [125I]-lactoferrin across BBCEC monolayers, inhibition by p97. The following applies: 200-fold molar excess of unlabelled p97, 37° C. (FIG. 16c). It counts as cell-based.
Another experiment relates to LRP1B. The experiment is described as follows: RT-PCR after p97 and RAP treatments in U-87 cells: LRP1B. It counts as cell-based, human. The note with it: 72 hours, RT-PCR (FIG. 35). The method, then:
FIG. 34. Effect of p97 and RAP treatments in U-87 cells. A. Cells (2×10^5) were plated onto six-multiwell microplates and grown at 37° C. under 5% CO2 with optimal culture medium supplemented with serum for 4 days. Treatment was performed in serum free medium for 72 hours. RNA isolation and RT-PCR were performed as described in the Examples. B. LRP/LRP1B was immunodetected in cells lysates as described in the Examples. […] (N=2 for p97 treatment), (n=1 for RAP treatment)
FIG. 35. Effect of p97 and RAP treatments in U-87 cells (RT-PCR). Cells (2×10^5) were plated onto six-multiwell microplates and grown at 37° C. under 5% CO2 with optimal culture medium supplemented with serum for 4 days. Treatment was performed in serum free medium for 72 hours. RNA isolation and RT-PCR were performed as described in the Examples. The amplified PCR products were electrophoresed on a 2% agarose gel and visualized under ultraviolet light. (n=2 for p97), (n=1 for RAP)
RNA extraction. Cells in six-wells plate or in 75 cm^2 plastic tissue culture flasks were grown at 37° C. under 5% CO2 with optimal culture medium to 80-90% confluence. Total cellular RNA was preserved in Trizol (Gibco BRL, Burlington, ON). The solution are frozen at −80° C. until extraction. The solution was defroze and mixed with 5:1 chloroform for 3 minutes at room temperature. The suspension was centrifugated at 12000 g at 4° C. […]

The values that follow come from patent US7977317B2, “Compositions and methods for modulating blood-brain barrier transport” (Raptor Pharmaceutical Inc., priority 2001, dated 2011).

B1: p97: recombinant human melanotransferrin (p97), provided by Synapse Technologies (protein, UniProt P08582 20-709, looked up)
Melanotransferrin: GMEVRWCATSDPEQHKCGNMSEAFREAGIQPSLLCVRGTSADHCVQLIAAQEADAITLDGGAIYEAGKEHGLKPVVGEVYDQEVGTSYYAVAVVRRSSHVTIDTLKGVKSCHTGINRTVGWNVPVGYLVESGRLSVMGCDVLKAVSDYFGGSCVPGAGETSYSESLCRLCRGDSSGEGVCDKSPLERYYDYSGAFRCLAEGAGDVAFVKHSTVLENTDGKTLPSWGQALLSQDFELLCRDGSRADVTEWRQCHLARVPAHAVVVRADTDGGLIFRLLNEGQRLFSHEGSSFQMFSSEAYGQKDLLFKDSTSELVPIATQTYEAWLGHEYLHAMKGLLCDPNRLPPYLRWCVLSTPEIQKCGDMAVAFRRQRLKPEIQCVSAKSPQHCMERIQAEQVDAVTLSGEDIYTAGKTYGLVPAAGEHYAPEDSSNSYYVVAVVRRDSSHAFTLDELRGKRSCHAGFGSPAGWDVPVGALIQRGFIRPKDCDVLTAVSEFFNASCVPVNNPKNYPSSLCALCVGDEQGRNKCVGNSQERYYGYRGAFRCLVENAGDVAFVRHTTVFDNTNGHNSEPWAAELRSEDYELLCPNGARAEVSQFAACNLAQIPPHAVMVRPDTNIFTVYGLLDKAQDLFGDDHNKNGFKMFDSSNYHGQDLLFKDATVRAVPVGEKTTYRGWLGLDYVAALEGMSSQQC
Consider B1, for which the “Expression of endogenous p97” value in experiment [1] is recorded as “appears to induce its own expression”. For the same molecule, the “Association with LRP/LRP1B” value in the experiment with LRP/LRP1B is “high molecular weight dissociable complex”. In the experiment on BBCEC monolayers, the “Inhibition of the transcytosis of bovine [125I]-lactoferrin” value is on record as “more than 75%”. Besides, the “Expression of the LRP1B receptor” value in the experiment with LRP1B is “induces the expression”.
